The Immune Epitope Database (IEDB)

Key:
HLA-A*03:01 [1] = assay: IEDB peptide-MHC binding, purified MHC/competitive/fluorescence; ≥ and ≤ were set here for values at or beyond the usual limits of such assays; details: source organism: Zaire ebolavirus
HLA-A*11:01 = assay: as above; details: source organism: Zaire ebolavirus
HLA-A*01:01 = assay: as above; details: source organism: Zaire ebolavirus
HLA-A*24:02 = assay: as above; details: source organism: Zaire ebolavirus
HLA-A*69:01 = assay: IEDB peptide-MHC binding, purified MHC/competitive/fluorescence; filed as Kd, often an IC50 or EC50 that approximates it; ≥ and ≤ were set here for values at or beyond the usual limits of such assays
HLA-A*03:01 [2] = assay: as above
HLA-A*26:01 = assay: as above
HLA-A*02:01 = assay: as above
HLA-B*45:06 = assay: as above; details: source organism: Vibrio vulnificus CMCP6
HLA-B*83:01 = assay: as above; details: source organism: Vibrio vulnificus CMCP6
HLA-A*02:19 = assay: as above
HLA-B*15:17 = assay: as above
HLA-B*15:01 = assay: as above
HLA-A*02:12 = assay: as above
HLA-A*68:02 = assay: as above; details: source organism: Vibrio vulnificus CMCP6
HLA-A*02:16 = assay: as above
HLA-B*51:01 = assay: as above
HLA-B*57:01 = assay: as above
HLA-A*29:02 = assay: as above
HLA-B*46:01 = assay: as above
HLA-B*39:01 = assay: as above
HLA-A*23:01 = assay: as above
HLA-A*02:11 = assay: as above
HLA-B*18:01 = assay: as above
HLA-B*15:42 = assay: as above; details: source organism: Vibrio vulnificus CMCP6
HLA-A*02:03 = assay: as above
HLA-A*24:03 = assay: as above
HLA-B*27:03 = assay: as above
HLA-A*26:02 = assay: as above; details: source organism: Human immunodeficiency virus 1
HLA-A*02:06 = assay: as above; details: source organism: Human immunodeficiency virus 1
HLA-C*05:01 = assay: IEDB peptide-MHC binding, purified MHC/direct/fluorescence; filed as Kd, often an IC50 or EC50 that approximates it; ≥ and ≤ were set here for values at or beyond the usual limits of such assays; details: source organism: Salmonella enterica subsp. enterica serovar Typhi str. CT18
[3] = source organism: Vibrio vulnificus CMCP6
[4] = source organism: Human immunodeficiency virus 1
[5] = source organism: Salmonella enterica subsp. enterica serovar Typhi

Work on ATDVPSATK yielded an IC50 (HLA-A*03:01 [1]) of 28.7 µM, an IC50 (HLA-A*11:01) of 2.14 µM and an IC50 (HLA-A*01:01) of 12 µM. The IC50 (HLA-A*24:02) was 64.6 µM.

For LEMNDAPTA, the Kd (HLA-A*69:01; [3]) was no less than 20 µM, the Kd (HLA-A*03:01 [2]; [3]) was no less than 20 µM and the Kd (HLA-A*26:01; [3]) was no less than 20 µM. It also gave a Kd (HLA-A*02:01; [3]) of no less than 20 µM, a Kd (HLA-B*45:06) of no less than 5 µM and a Kd (HLA-B*83:01) of no less than 5 µM. It also gave a Kd (HLA-A*02:19; [3]) of no less than 20 µM, a Kd (HLA-B*15:17; [3]) of no less than 20 µM and a Kd (HLA-B*15:01; [3]) of no less than 20 µM. It also gave a Kd (HLA-A*02:12; [3]) of no less than 20 µM, a Kd (HLA-A*68:02) of no less than 20 µM and a Kd (HLA-A*02:16; [3]) of no less than 20 µM. It also gave a Kd (HLA-B*51:01; [3]) of no less than 20 µM, a Kd (HLA-B*57:01; [3]) of no less than 20 µM and a Kd (HLA-A*29:02; [3]) of no less than 20 µM. The Kd (HLA-B*46:01; [3]) was no less than 20 µM, the Kd (HLA-B*39:01; [3]) was no less than 20 µM and the Kd (HLA-A*23:01; [3]) was no less than 20 µM. The Kd (HLA-A*02:11; [3]) was no less than 20 µM, the Kd (HLA-B*18:01; [3]) was 0.24 µM and the Kd (HLA-B*15:42) was no less than 5 µM. For the same sequence, the Kd (HLA-A*02:03; [3]) was no less than 20 µM, the Kd (HLA-A*24:03; [3]) was no less than 20 µM and the Kd (HLA-B*27:03; [3]) was no less than 20 µM.

LFNTIATLY gave a Kd (HLA-A*02:01; [4]) of 1.07 µM, a Kd (HLA-B*15:17; [4]) of 2.51 µM and a Kd (HLA-A*26:02) of no less than 20 µM. The Kd (HLA-A*02:06) was 1.29 µM and the Kd (HLA-A*02:03; [4]) was no less than 20 µM.

NTDEIPELI gave a Kd (HLA-C*05:01) of 0.114 µM, a Kd (HLA-A*03:01 [2]; [5]) of no less than 20 µM and a Kd (HLA-A*26:01; [5]) of no less than 20 µM. For the same sequence, the Kd (HLA-A*02:01; [5]) was no less than 20 µM, the Kd (HLA-A*02:19; [5]) was no less than 20 µM and the Kd (HLA-B*15:17; [5]) was no less than 20 µM. It also gave a Kd (HLA-B*15:01; [5]) of no less than 20 µM, a Kd (HLA-A*02:12; [5]) of no less than 20 µM and a Kd (HLA-A*02:16; [5]) of no less than 20 µM. It also gave a Kd (HLA-B*51:01; [5]) of no less than 20 µM, a Kd (HLA-B*57:01; [5]) of no less than 20 µM and a Kd (HLA-A*29:02; [5]) of no less than 20 µM. For the same sequence, the Kd (HLA-B*46:01; [5]) was no less than 20 µM, the Kd (HLA-B*39:01; [5]) was no less than 20 µM and the Kd (HLA-A*23:01; [5]) was no less than 20 µM. The Kd (HLA-A*02:11; [5]) was 0.0031 µM, the Kd (HLA-B*18:01; [5]) was no less than 20 µM and the Kd (HLA-A*02:03; [5]) was no less than 20 µM. The Kd (HLA-A*24:03; [5]) was no less than 20 µM and the Kd (HLA-B*27:03; [5]) was no less than 20 µM.

VVPYEPPEV was tested, and the Kd (HLA-A*69:01; source organism: Homo sapiens) was no less than 20 µM, the Kd (HLA-A*02:01; source organism: Homo sapiens) was 0.0265 µM and the Kd (HLA-A*02:12; source organism: Homo sapiens) was 0.161 µM. For the same sequence, the Kd (HLA-A*02:11; source organism: Homo sapiens) was 0.0093 µM and the Kd (HLA-A*02:03; source organism: Homo sapiens) was 1.12 µM.
